Reference: IntAct's records for PubMed 29039417

B1: BBSome complex member BBS4 (Homo sapiens), Q96RK4 (parent)
chain: MAEERVATRTQFPVSTESQKPRQKKAPEFPILEKQNWLIHLHYIRKDYEACKAVIKEQLQETQGLCEYAIYVQALIFRLEGNIQESLELFQTCAVLSPQSADNLKQVARSLFLLGKHKAAIEVYNEAAKLNQKDWEISHNLGVCYIYLKQFNKAQDQLHNALNLNRHDLTYIMLGKIHLLEGDLDKAIEVYKKAVEFSPENTELLTTLGLLYLQLGIYQKAFEHLGNALTYDPTNYKAILAAGSMMQTHGDFDVALTKYRVVACAVPESPPLWNNIGMCFFGKKKYVAAISCLKRANYLAPFDWKILYNLGLVHLTMQQYASAFHFLSAAINFQPKMGELYMLLAVALTNLEDIENAKRAYAEAVHLDKCNPLVNLNYAVLLYNQGEKKNALAQYQEMEKKVSLLKDNSSLEFDSEMVEMAQKLGAALQVGEALVWTKPVKDPKSKHQTTSTSKPASFQQPLGSNQALGQAMSSAAAYRTLPSGAGGTSQFTKPPSLPLEPEPAVESSPTETSEQIREK
partner: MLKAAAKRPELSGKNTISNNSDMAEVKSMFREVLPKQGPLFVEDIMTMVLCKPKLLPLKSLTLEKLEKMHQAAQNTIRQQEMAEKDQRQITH

Variants of: B1
Details: with bbip1_human BBIP1, A8MTZ0

Effect of a mutation on the interaction, with no effect:
E416A
V418E
L340E
K336A
K285E
L348E
F281E
K444E
L315A
D303E
L373E
E387K
T450E
L481K
L481E
S508E
